Experimental data from article PMC4432371, “Functional Characterization of Novel Sesquiterpene Synthases from Indian Sandalwood, Santalum album” (Scientific Reports, 2015).

Legend:
SaFDS = SaFDS (Santalum album, UniProt E3W209); experiment: GC / GC-MS of (E,E)-farnesol after alkaline phosphatase; type: biochemical; conditions: 25 mM HEPES, 10% glycerol, 5 mM DTT, 10 mM MgCl2, pH 7.4, 30 °C
SaSS = SaSS (Santalum album, UniProt E3W202, Y539W); experiment: GC / GC-MS product analysis; type: biochemical; conditions: data not shown; mutant sequence NCBI JQ690659; assay form of the mutant not described
[1] = substrate: CC(C)=CCC/C(C)=C/CC/C(C)=C/CO[P@@](=O)(O)OP(=O)(O)O; experiment: GC quantification of product, steady-state kinetics; type: biochemical, Santalum album; conditions: apparent Km, HEPES buffer, 30 °C, 5 min, 5 μM enzyme
Source text: GC quantification of product, steady-state kinetics on SaSS

[2] = substrate: CC(C)=CCC/C(C)=C/CC/C(C)=C/CO[P@@](=O)(O)OP(=O)(O)O; experiment: as above; type: biochemical, Santalum album; conditions: apparent Km, HEPES buffer, 30 °C, 5 min, 5 μM enzyme; remark: listed apart in the source
Source text: GC quantification of product, steady-state kinetics on SaSQS2

[3] = substrate: CC(C)=CCC/C(C)=C/CC/C(C)=C/CO[P@@](=O)(O)OP(=O)(O)O; experiment: as above; type: biochemical, Santalum album; conditions: apparent Km, HEPES buffer, 30 °C, 5 min, 5 μM enzyme; remark: listed apart in the source
Source text: GC quantification of product, steady-state kinetics on SaBS

[4] = substrate: CC(C)=CCC/C(C)=C/CC/C(C)=C/CO[P@@](=O)(O)OP(=O)(O)O; experiment: as above; type: biochemical, Santalum album; conditions: apparent Km, HEPES buffer, 30 °C, 5 min, 5 μM enzyme; remark: listed apart in the source
Source text: GC quantification of product, steady-state kinetics on SaSQS1

Chain of SaFDS (E3W209 entry or part of it): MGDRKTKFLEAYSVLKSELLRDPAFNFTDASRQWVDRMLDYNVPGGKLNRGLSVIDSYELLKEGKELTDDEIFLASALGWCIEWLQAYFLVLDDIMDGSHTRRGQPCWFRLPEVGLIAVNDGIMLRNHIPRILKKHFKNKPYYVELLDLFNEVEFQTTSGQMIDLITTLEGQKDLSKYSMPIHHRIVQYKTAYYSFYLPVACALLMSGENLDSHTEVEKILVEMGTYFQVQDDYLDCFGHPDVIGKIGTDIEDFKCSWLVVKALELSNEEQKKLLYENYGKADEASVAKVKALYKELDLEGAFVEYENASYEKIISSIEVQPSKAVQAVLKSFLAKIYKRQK
Chain of SaSS (E3W202 whole entry Y539W): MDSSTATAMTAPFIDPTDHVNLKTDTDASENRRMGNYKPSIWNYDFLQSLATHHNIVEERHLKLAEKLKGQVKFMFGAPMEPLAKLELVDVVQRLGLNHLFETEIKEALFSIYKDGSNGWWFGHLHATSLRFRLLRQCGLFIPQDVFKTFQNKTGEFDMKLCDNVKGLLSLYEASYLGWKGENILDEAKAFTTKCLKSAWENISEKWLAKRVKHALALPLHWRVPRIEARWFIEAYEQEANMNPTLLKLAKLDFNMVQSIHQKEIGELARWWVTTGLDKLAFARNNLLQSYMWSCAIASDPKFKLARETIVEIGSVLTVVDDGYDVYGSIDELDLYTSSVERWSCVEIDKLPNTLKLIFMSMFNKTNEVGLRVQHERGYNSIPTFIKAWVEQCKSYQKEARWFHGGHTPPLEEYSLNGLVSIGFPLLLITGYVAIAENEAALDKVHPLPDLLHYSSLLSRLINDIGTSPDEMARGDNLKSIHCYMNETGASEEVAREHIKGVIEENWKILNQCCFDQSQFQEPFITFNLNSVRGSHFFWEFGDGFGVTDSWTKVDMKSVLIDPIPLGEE

CC(C)=CCC/C(C)=C/COP(=O)(O)OP(=O)(O)O [GPP]
GC / GC-MS of (E,E)-farnesol after alkaline phosphatase (SaFDS; with IPP): Incubation of recombinant SaFDS with equimolar concentrations of IPP and GPP

CC(C)=CCC/C(C)=C/CC/C(C)=C/COP(=O)(O)OP(=O)(O)O [(E,E)-FPP]
GC / GC-MS product analysis (SaSS): a mutant of SaSS (Y539W, NCBI: JQ690659) was able to cyclize (E,E)-FPP

C=C(C)CCOP(=O)(O)OP(=O)(O)O [IPP]
GC / GC-MS of (E,E)-farnesol after alkaline phosphatase (SaFDS; with GPP or DMAPP): Incubation of recombinant SaFDS with equimolar concentrations of IPP and GPP

B1: SaSS (Santalum album) (protein)
chain: MDSSTATAMTAPFIDPTDHVNLKTDTDASENRRMGNYKPSIWNYDFLQSLATHHNIVEERHLKLAEKLKGQVKFMFGAPMEPLAKLELVDVVQRLGLNHLFETEIKEALFSIYKDGSNGWWFGHLHATSLRFRLLRQCGLFIPQDVFKTFQNKTGEFDMKLCDNVKGLLSLYEASYLGWKGENILDEAKAFTTKCLKSAWENISEKWLAKRVKHALALPLHWRVPRIEARWFIEAYEQEANMNPTLLKLAKLDFNMVQSIHQKEIGELARWWVTTGLDKLAFARNNLLQSYMWSCAIASDPKFKLARETIVEIGSVLTVVDDGYDVYGSIDELDLYTSSVERWSCVEIDKLPNTLKLIFMSMFNKTNEVGLRVQHERGYNSIPTFIKAWVEQCKSYQKEARWFHGGHTPPLEEYSLNGLVSIGFPLLLITGYVAIAENEAALDKVHPLPDLLHYSSLLSRLINDIGTSPDEMARGDNLKSIHCYMNETGASEEVAREHIKGVIEENWKILNQCCFDQSQFQEPFITFNLNSVRGSHFFYEFGDGFGVTDSWTKVDMKSVLIDPIPLGEE
Km [1]: 0.59 ± 0.24 µM | kcat [1]: 0.00833 ± 0.0005 s⁻¹ | kcat/Km [1]: 15000 M⁻¹ s⁻¹

B2: SaSQS2 (Santalum album) (protein)
chain: MASVIVEPIRCNNDNDVISTVVDDSSVVRRAANYPPNLWDYEFLQSLGDQCTVEEKHLKLADKLKEEVKSLIKQTMEPLTKLEFIDTVRRLGLKYQFETEVKEAVVMVSKYENDAWWIDNLHATSLRFRIMRENGIFVPQDVFERFKDTDGFKNQLCEDVKGLLSLYEASFLGWEGEDILDEARTFATSKLKSIEGKIPSPSLAKKVSHALDLPLHWRTIRYEARWFIDTYEEEEDVNLTLLRYAKLDFNIVQSFHQKEIGRLSRWWVGTGLDKMPFARNGLIQSYMYAIGMLFEPNLGEVREMEAKVGALITTIDDVYDVYGTMEELELFTDITNRWDISKADQLPRNIRMPLLTMFNTSNDIGYWALKERGFNGIPCTAKVWSDQLKSYTKEAKWFHEGHKPTLEEYLDNALVSIGFPNLLVTSYLLTVENPTKEKLDYVNSLPLFVRASCILCRIINDLGTSPDEMERGDNLKSIQCYMNEAGASQEVAREHIEGLVRMWWKRLNKCLFEPSPFAEPFLSFTVNVVRGSHFFYQYGDGYGNAESWTKKQGMSVLIHPIPLNEE
Km [2]: 15.30 ± 3.83 µM | kcat [2]: 0.00233 ± 0.000167 s⁻¹ | kcat/Km [2]: 150 M⁻¹ s⁻¹

B3: SaBS (Santalum album) (protein)
chain: MDAFATSPTSALIKAVNCIAHVTPMAGEDSSENRRASNYKPSSWDYEFLQSLATSHNTVQEKHMKMAEKLKEEVKSMIKGQMEPVAKLELINILQRLGLKYRFESEIKEELFSLYKDGTDAWWVDNLHATALRFRLLRENGIFVPQDVFETLKDKSGKFKSQLCKDVRGLLSLYEASYLGWEGEDLLDEAKKFSTTNLNNVKESISSNTLGRLVKHALNLPLHWSAARYEARWFIDEYEKEENVNPNLLKYAKFDFNIVQSIHQRELGNLARWWVETGLDKLSFVRNTLMQNFMWGCAMVFEPQYGKVRDAAVKQASLIAMVDDVYDVYGSLEELEIFTDIVDRWDITGIDKLPRNISMILLTMFNTANQIGYDLLRDRGFNGIPHIAQAWATLCKKYLKEAKWYHSGYKPTLEEYLENGLVSISFVLSLVTAYLQTETLENLTYESAAYVNSVPPLVRYSGLLNRLYNDLGTSSAEIARGDTLKSIQCYMTQTGATEEAAREHIKGLVHEAWKGMNKCLFEQTPFAEPFVGFNVNTVRGSQFFYQHGDGYAVTESWTKDLSLSVLIHPIPLNEED
Km [3]: 12.59 ± 1.40 µM | kcat [3]: 0.000667 s⁻¹ | kcat/Km [3]: 50 M⁻¹ s⁻¹

B4: SaSQS1 (Santalum album) (protein)
chain: MDLCQIPPTSPISPSVPFNGDDSSVVRRSANYPANLWDYDFLQSLGRHSSVTEEHVGLAEKLKGEVKSLITGPMEPLAKLEFIDSVRRLGLKYQFETEMKEALANISKDGYDSWWVDNLRATALRFRLLRENGIFVPQDVFERFQNKETGKFKNELCEDVKGLLNLYEASFLGWEGEDILDEARTFSTAQLKNVEGKISSPNLAKIVHHALDLPLHWRAIRYEARWFIDIYEDEEDMNPTLLKYAKLDFNIVQSFHQAEIGRLARWWVGTGLDKLPFARNGLIQSYMYAIGMLFEPHLGEVREMEAKVGALITTIDDVYDVYGTMEELELFTDITERWDINRVDQLPRNIRMPLLTMFNTSNDIGYWALKERGFNGIPYTAKVWADQLKSYTKEAKWFHEGHKPTLEEYLENALVSIGFPNLLVTSYLLTVDNPTKEKLDYVDSLPLFVRASCILCRIINDLGTSPDEMERGDNLKSIQCYMNETGASQEVAREHIEGLVRMWWKRLNKCLFEPSPFTEPFLSFTINVVRGSHFFYQYGDGYGNAESWTKNQGMSVLIHPITLDEE
Km [4]: 11.12 ± 2.80 µM | kcat [4]: 0.00583 ± 0.0005 s⁻¹ | kcat/Km [4]: 500 M⁻¹ s⁻¹
